Data published in patent CN106946990A.

Tests used:
[1] = target: Myc-GST融合蛋白 (Myc tag fused to glutathione [S-transferase]); experiment: indirect ELISA on coated Myc-GST (5 μg/mL), HRP anti-His secondary, 30 min at 90℃
[2] = target: Myc-GST融合蛋白 (Myc tag fused to glutathione [S-transferase]); experiment: indirect ELISA on coated Myc-GST (5 μg/mL), HRP anti-His secondary, 30 min at 80℃
[3] = target: Myc-GST融合蛋白 (Myc tag fused to glutathione [S-transferase]); experiment: indirect ELISA on coated Myc-GST (5 μg/mL), HRP anti-His secondary, 30 min at 70℃

- OD450 [1]: 1.1 OD450
- OD450 [2]: 1.4 OD450
- OD450 [3]: 1.5 OD450
B1: 针对c-Myc标签的单域重链抗体 (single-domain heavy-chain antibody against the c-Myc tag, SEQ ID NO.:1) (VHH, not shown: small tags and cut ends)
VHH: QLQLVESGGGLVQPGGSLRLSCSASGFAFNLFYMGWVRQAPGKGLEWVADIDNTGDKYYAESVEGRFTVSRDNAKKTLYLQMDSLKSEDTAQYYCLKGGCRETFSLCARGQGTQVTVSS
